Experimental data from US20120171240A1 (UNIVERSITY OF LOUISVILLE RESEARCH FOUNDATION, published 2012).
Values belong to the molecule of their own block, whether it stands above or below them.

Columns and labels:
[1] = target: human CD40 receptor (human, UniProt P25942 21-277); assay: cell-based or functional assay
[2] = target: 4-1BB receptor on mouse T cells (mouse) (UniProt P20334); assay: cell-based or functional assay
Sequence of 4-1BB receptor on mouse T cells (mouse) (P20334 24-256): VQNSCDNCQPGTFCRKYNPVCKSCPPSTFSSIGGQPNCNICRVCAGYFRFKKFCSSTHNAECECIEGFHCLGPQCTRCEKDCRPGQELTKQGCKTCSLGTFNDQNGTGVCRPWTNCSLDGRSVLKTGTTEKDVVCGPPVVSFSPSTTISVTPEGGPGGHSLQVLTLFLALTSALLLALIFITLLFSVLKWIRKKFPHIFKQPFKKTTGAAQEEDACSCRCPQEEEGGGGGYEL

Sequence of human CD40 receptor (P25942 21-277): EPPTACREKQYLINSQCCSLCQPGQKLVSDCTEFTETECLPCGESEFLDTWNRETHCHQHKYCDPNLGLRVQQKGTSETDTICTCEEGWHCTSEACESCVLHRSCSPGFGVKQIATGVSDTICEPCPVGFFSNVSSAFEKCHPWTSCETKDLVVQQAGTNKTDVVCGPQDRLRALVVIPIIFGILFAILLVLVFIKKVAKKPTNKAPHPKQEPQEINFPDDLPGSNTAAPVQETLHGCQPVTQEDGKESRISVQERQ

iNOS production, Western blot, IFN-γ primed CD40KO-human CD40 macrophages [1]: 6 fold
Molecule: commercially available trimeric recombinant human CD40L (rhsCD40L) (from UniProt P29965 116-261) (ligand)

proliferation of CFSE-labeled CD4+CD25- (SP) T cells, percent dividing [2]: 60%
proliferation of SP T cells in co-culture with CD4+CD25+ (DP) Treg cells, percent dividing [2]: 34%
Molecule: CSA-4-1BBL fusion protein (ligand)

IL-6 mRNA, RNAse protection assay, murine CD40KO macrophage line expressing human CD40 [1]: 2.8 fold
human IL-10 production (printed so; summed up as IL-1β) by human monocytes, ELISA, 18 h [1]: 5 fold
iNOS production, Western blot, IFN-γ primed CD40KO-human CD40 macrophages [1]: 9 fold
B1: CSA-hCD40L (fusion of core streptavidin and the extracellular domain of human CD40L) (ligand)
chain: RSHHHHHHITGTWYNQLGSTFIVTAGADGALTGTYESAVGNAESRYVLTGRYDSAPATDGSGTALGWTVAWKNNYRNAHSATTWSGQYVGGAEARINTQWLLTSGATEANAWKSTLVGHDTFTKVKPSAASSEFLDKIEDERNLHEDFVFMKTIQRCNTGERSLSLLNCEEIKSQFEGFVKDIMLNKEETKKENSFEMQKGDQNPQIAAHVISEASSKTTSVLQWAEKGYYTMSNNLVTLENGKQLTVKRQGLYYIYAQVTFCSNREASSQAPFIASLCLKSPGRFERILLRAANTHSSAKPCGQQSIHLGGVFELQPGASVFVNVTDPSQVSHGTGFTSFGLLKL
